Patent publication US20150132307A1 (Hoffmann-La Roche, published 2015)
Where a chain is given by its changes, count along the chain named.

T1: human Flag-tagged soluble TWEAK (amino acids 106-249) (human, UniProt O43508 106-249)
T1 construct: The sentence gives amino acids 106-249 without naming the entry; also called Human TWEAK; not shown: Flag tag
T1 sequence: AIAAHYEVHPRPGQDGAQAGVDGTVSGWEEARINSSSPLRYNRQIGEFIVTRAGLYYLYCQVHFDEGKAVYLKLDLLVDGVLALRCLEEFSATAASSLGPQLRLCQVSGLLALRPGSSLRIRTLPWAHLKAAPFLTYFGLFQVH

T2: Human recombinant soluble TWEAK (Example 6) (human, UniProt O43508 99-249, limits assumed)
T2 sequence: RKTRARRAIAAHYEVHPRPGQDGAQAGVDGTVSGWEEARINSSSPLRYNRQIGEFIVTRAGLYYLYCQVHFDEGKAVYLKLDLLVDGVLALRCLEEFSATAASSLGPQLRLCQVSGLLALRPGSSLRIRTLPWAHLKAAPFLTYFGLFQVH

T3: Recombinant human TWEAK (R&D Systems; Cat. #1090-TW/CF) (human, UniProt O43508 97-249, limits assumed)
T3 sequence: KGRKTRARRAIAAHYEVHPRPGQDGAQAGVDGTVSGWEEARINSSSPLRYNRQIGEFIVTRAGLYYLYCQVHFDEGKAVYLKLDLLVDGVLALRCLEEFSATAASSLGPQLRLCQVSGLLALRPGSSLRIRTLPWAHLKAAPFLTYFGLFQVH

T4: Biotinylated human soluble TWEAK (amino acids 99-249 of SEQ ID NO: 68) (human, UniProt O43508 99-249, biotinylated)
T4 construct: also called Human TWEAK
T4 sequence: T2 sequence

T5: Mouse soluble TWEAK (untagged, Example 5) (mouse, UniProt O54907 105-249, limits assumed)
T5 construct: also called Murine TWEAK
T5 sequence: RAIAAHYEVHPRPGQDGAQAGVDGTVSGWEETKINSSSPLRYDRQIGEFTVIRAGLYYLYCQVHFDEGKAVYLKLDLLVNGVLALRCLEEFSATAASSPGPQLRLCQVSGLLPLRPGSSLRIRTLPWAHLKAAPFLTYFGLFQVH

B1: <TWEAK> 305 (rabbit) (antibody, V domains shown)
VH: QEQLVESGGGLVQPGGSLTLSCKASGFDFSTYYMSWVRQAPGKGLEWIGTVYVRQGTTYYASWLNGRFTISSDNAQNTVDLKMNSLTAADTATYFCAKGGYNYDDAFVIWGPGTLVTVSF
VL: AIEMTQTPFSVSAAVGGTVTINCQASQNIYSNLAWYQQKPGQPPKLLMYTASYLASGVPSRFKGSGSRTEYTLTISGVQCADAATYYCQTAYYNSRPDTVAFGGGTEVVVK
notes: Rabbit parent antibody
B2: Bispecific <Tweak-IL-17> #5 antibody (bispecific antibody, human IgG1, kappa)
heavy: not shown
light: DIQMTQSPSSVSASVGDRVTITCQASQNIYSNLAWYQQKPGKAPKLLIYTASYLASGVPSRFSGSGSGTDYTLTISSLQPEDFATYYCQTAYYNSRPDTVAFGGGTKVEIKRTVAAPSVFIFPPSDEQLKSGTASVVCLLNNFYPREAKVQWKVDNALQSGNSQESVTEQDSKDSTYSLSSTLTLSKADYEKHKVYACEVTHQGLSSPVTKSFNRGEC
B3: Bispecific <Tweak-IL-17> #21 antibody (bispecific antibody, human IgG4 S228P, kappa)
heavy 1: EVQLVESGGGLVQPGGSLRLSCAASGFSLDSYGVHWVRQAPGKGLEWVSVIWSDGTTTYNSALKSRFTISRDNSKNTLYLQMNSLRAEDTAVYYCARDTHYRLYYYAMDYWGQGTTVTVSSASTKGPSVFPLAPCSRSTSESTAALGCLVKDYFPEPVTVSWNSGALTSGVHTFPAVLQSSGLYSLSSVVTVPSSSLGTKTYTCNVDHKPSNTKVDKRVESKYGPPCPPCPAPEFEGGPSVFLFPPKPKDTLMISRTPEVTCVVVDVSQEDPEVQFNWYVDGVEVHNAKTKPREEQFNSTYRVVSVLTVLHQDWLNGKEYKCKVSNKGLPSSIEKTISKAKGQPREPQVCTLPPSQEEMTKNQVSLSCAVKGFYPSDIAVEWESNGQPENNYKTTPPVLDSDGSFFLVSRLTVDKSRWQEGNVFSCSVMHEALHNHYTQKSLSLSLGK
heavy 2: not shown
light: DIVMTQSPLSLPVTPGEPASISCRSSQSLVHSNGDTYFHWYLQKPGQSPQLLIYKVSNRFSGVPDRFSGSGSGTDFTLKISRVEAEDVGVYYCSQTTHAPFTFGQGTKLEIKRTVAAPSVFIFPPSDEQLKSGTASVVCLLNNFYPREAKVQWKVDNALQSGNSQESVTEQDSKDSTYSLSSTLTLSKADYEKHKVYACEVTHQGLSSPVTKSFNRGEC
B4: Humanized <TWEAK> 305- antibody 28 (antibody, V domains shown)
VH: EVQLLESGGGLVQPGGSLTLSCAASGFDFSTYYMSWVRQAPGKGLEWVSTVYVRQGTTYYASWLNGRFTISRDNSKNTLYLQMNSLRAEDTAVYYCAKGGYNYDDAFVIWGQGTLVTVSS
VL: DIQMTQSPSSVSASVGDRVTITCQASQNIYSNLAWYQQKPGKAPKLLIYTASYLASGVPSRFSGSGSGTDYTLTISSLQPEDFATYYCQTAYYNSRPDTVAFGGGTKVEIK
B5: Humanized <TWEAK> 305- antibody 32 (antibody, V domains shown)
VH: B4 VH with T19R, Y80D
VL: B4 VL with S10T, V11L, D70E, Y71F, E81D
B6: Humanized <TWEAK> 305- antibody 30 (antibody, V domains shown)
VH: B4 VH with T19R, R87T
VL: B4 VL with Y71F
B7: Humanized <TWEAK> 305- antibody 31 (antibody, V domains shown)
VH: B4 VH
VL: B4 VL with D1A, Q3R, V11F, V15T, S77C, P80S
B8: Humanized <TWEAK> 305- antibody 33 (antibody, V domains shown)
VH: QVQLVQSGAEVKKPGSSVKVSCKASGFDFSTYYMSWVRQAPGQGLEWMGTVYVRQGTTYYASWLNGRVTITADESTSTAYMELSSLRSEDTAVYYCARGGYNYDDAFVIWGQGTLVTVSS
VL: B4 VL with D1A, Q3R, V11F, V15T, S77C, P80S
B9: Humanized <TWEAK> 305- antibody 29 (antibody, V domains shown)
VH: B4 VH with T19R, Y80D
VL: B4 VL
B10: Humanized <TWEAK> 305- antibody 34 (antibody, V domains shown)
VH: B4 VH with T19R
VL: B4 VL with D1A, Q3R, V11F, V15T, S77C, P80S
B11: <TWEAK> 304chi (antibody, human IgG1, kappa, V domains shown)
VH: QSLEESGGDLVKPGASLTLTCKASGFSFSSTYYMCWVRQAPGKGLEWIGCIYVGSSGAPYYASWAKGRFTISKTSSTTVALQMTSLTPADTATYVCTRSVHFGDLWGPGTLVTVSS
VL: DVVMTQTPSPVSAAVGGTVTIKCQASQSIGNDLSWYQQKPGQRPKLLIYSVSTLASGVPSRFKGSGSGTEYSLTISDVQCADAATYYCQCIDYGNNYVGNTFGGGTEVVVKR
notes: Chimer: rabbit variable domains with human kappa and human IgG1 constant regions

Columns and labels:
[1] = target: T1, human Flag-tagged soluble TWEAK (amino …); test: receptor interaction ELISA: Flag-TWEAK 2.5 ng/ml preincubated with antibody, then on coated human Fn14:Fc (competitor m21)
Procedure: (§1) 96-well Maxisorp® plates (Nunc) were coated with 100 μl 1 μg/ml human Fn14:Fc (extracellular domain of human Fn14 (amino acids 1-75 of SEQ ID NO: 98) fused to Fc portion of human IgG1) in PBS per well for 1.5 h at room temperature and blocked with a solution of 5% FBS in PBS for 30 minutes at room temperature under shaking. […] After washing the Fn14-coated plate once with wash buffer (0.1% Tween® 20 in PBS), 100 μl of the TWEAK-antibody solution were transferred to each well and the plate was incubated for 1 h at room temperature, followed by four washes with wash buffer. Wells were filled with 100 μl of anti-FLAG-HRP detection antibody, diluted 1:5000 in blocking buffer, and incubated for 1 h at room temperature. After four more wash steps, the signal was developed by addition of 100 μl 3,3,5,5-Tetramethylbenzidine (TMB) solution for approximately ten minutes. The reaction was stopped by adding 100 μl of 1 N HCl, and absorbance measured at 450 nm (reference wavelength 620 nm).

[2] = target: T2, Human recombinant soluble TWEAK …; test: cell-based or functional assay
[3] = target: T3, Recombinant human TWEAK (R&D Systems; …); test: cell-based or functional assay
[4] = target: recombinant human IL-17 (Peprotech #200-17) (human, UniProt Q16552 20-155); test: cell-based or functional assay
[5] = target: T4, Biotinylated human soluble TWEAK (amino …); test: SPR (Biacore), biotinylated soluble TWEAK on streptavidin chip, 37 C
[6] = target: T2, Human recombinant soluble TWEAK …; test: cell-based or functional assay; remark: listed apart in the source
[7] = target: T1, human Flag-tagged soluble TWEAK (amino …); test: receptor interaction ELISA: Flag-TWEAK preincubated with antibody, then on coated human Fn14:Fc (competitor m21)
Procedure: as §1

[8] = target: T5, Mouse soluble TWEAK (untagged, Example …); test: receptor interaction ELISA: mouse soluble TWEAK preincubated with antibody, then on coated mouse Fn14:Fc (competitor m22)
Procedure: Briefly, Maxisorp plates were coated with mouse Fn14:Fc (extracellular domain of mouse Fn14 (amino acids 1-75 of SEQ ID NO: 98) fused to Fc portion of human IgG1) as described above for human Fn14:Fc, followed by blocking and washing. […] After 1 h of incubation at room temperature and four washes, biotinylated anti-mouse TWEAK antibody at 125 ng/ml in blocking buffer was added for 1 h at room temperature, followed by another four wash steps. The TWEAK antibody was detected by incubation with streptavidin-HRP, diluted 1:5000 in blocking buffer, for 30 minutes at room temperature. Signal was developed and absorbance measured as described above.

[9] = target: T4, Biotinylated human soluble TWEAK (amino …); test: SPR (Biacore), biotinylated soluble TWEAK on streptavidin chip, 25 C
Procedure: (§2) A Biacore 2000 instrument was used with a Biacore streptavidin coated sensor mounted into the system. The system buffer HBS-ET (10 mM HEPES pH 7.4, 150 mM NaCl, 1 mM EDTA, 0.05% Tween® 20) was used at a flow rate of 100 μl/min. The sample buffer was the system buffer. Biotinylated human soluble TWEAK (amino acids 99-249 of SEQ ID NO: 68) and biotinylated murine soluble TWEAK (amino acids 81-225 of SEQ ID NO: 69) was immobilized on different flow cells on the SA sensor at 150 RU each. The flow cell FC1 was used as a blank reference cell. Each antibody was injected into the system as an analyte at 100 nM at 100 μl/min for 2 min association time. The dissociation of the immunecomplexes were monitored for 5 min. The sensor surface was washed with HBS-ET for 10 seconds and regenerated using 2×2 minutes injections with 10 mM glycine pH 2.25. This procedure was done at 25° C. The kinetically rate limiting step of the complex dissociation phase in the interval [240 s-300 s] was taken to calculate the dissociation rate kd [1/s] (Biacore Evaluation Software 4.0). According to the equation t1/2 diss=ln(2)/(60×kd), the half-life of the immunocomplexes in minutes was calculated.

[10] = target: T4, Biotinylated human soluble TWEAK (amino …); test: SPR (Biacore 2000), biotinylated soluble TWEAK on streptavidin chip, antibody 100 nM as analyte, 25 C
Procedure: as §2

Chain of recombinant human IL-17 (Peprotech #200-17) (Q16552 20-155 limits assumed): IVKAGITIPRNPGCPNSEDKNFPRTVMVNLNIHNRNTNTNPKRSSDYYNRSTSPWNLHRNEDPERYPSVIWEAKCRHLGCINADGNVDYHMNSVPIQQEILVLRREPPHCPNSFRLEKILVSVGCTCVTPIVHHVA

IC50 [1] [ng/mL] | Inhibition of IL-8 Secretion IC50 [ng/ml] (A375 cells) [2] [ng/mL] | IC50 (nM) per valency, Tweak induced HFLS proliferation (CellTiter Glo) [3] [nM] | IL-6 IC50 [nM] per valency (IL-17 induced cytokine production, HFLS-RA) [4] [nM] | IL-8 IC50 [nM] per valency (IL-17 induced cytokine production, HFLS-RA) [4] [nM] | Biacore t/2 diss. [min] 37° C. human [5] [min] | Inhibition of IL8-Secretion [ng/ml] (A375 cells) [6] [ng/mL] | IC50 [7] [ng/mL] | IC50 [8] [ng/mL] | Biacore t/2 diss. [min] 25° C. human [9] [min] | t/2 diss [min] 25° C. [10] [min] | Binder
2.5 | 99 |  |  |  |  |  |  |  |  |  | B1
 |  | 0.152 | 1.32 | 1.12 |  |  |  |  |  |  | B2
 |  |  | 2.71 | 1.71 |  |  |  |  |  |  | B3
 |  |  |  |  | 115 | 165 | 1.5 | 6.5 | 87 |  | B4
 |  |  |  |  | 50 | 134 | 1.5 | 5.4 | 67 |  | B5
 |  |  |  |  | 45 | 207 | 2.3 | 7.6 | 50 |  | B6
 |  |  |  |  | 151 | 94 | 1.7 | 7.1 | 115 |  | B7
 |  |  |  |  | 99 | 26 | 1.7 | 6.7 | 127 |  | B8
 |  |  |  |  | 195 | 78 | 1.8 | 5.7 | 146 |  | B9
 |  |  |  |  | 185 | 24 | 1.9 | 5.9 | 158 |  | B10
2.6 | 122 |  |  |  |  |  |  |  |  | 37 | B11
